Laboratory results from paper PMC4820614.

Target: T1, full-length rat TRPV2 (rat), Q9WUD2
T1 chain: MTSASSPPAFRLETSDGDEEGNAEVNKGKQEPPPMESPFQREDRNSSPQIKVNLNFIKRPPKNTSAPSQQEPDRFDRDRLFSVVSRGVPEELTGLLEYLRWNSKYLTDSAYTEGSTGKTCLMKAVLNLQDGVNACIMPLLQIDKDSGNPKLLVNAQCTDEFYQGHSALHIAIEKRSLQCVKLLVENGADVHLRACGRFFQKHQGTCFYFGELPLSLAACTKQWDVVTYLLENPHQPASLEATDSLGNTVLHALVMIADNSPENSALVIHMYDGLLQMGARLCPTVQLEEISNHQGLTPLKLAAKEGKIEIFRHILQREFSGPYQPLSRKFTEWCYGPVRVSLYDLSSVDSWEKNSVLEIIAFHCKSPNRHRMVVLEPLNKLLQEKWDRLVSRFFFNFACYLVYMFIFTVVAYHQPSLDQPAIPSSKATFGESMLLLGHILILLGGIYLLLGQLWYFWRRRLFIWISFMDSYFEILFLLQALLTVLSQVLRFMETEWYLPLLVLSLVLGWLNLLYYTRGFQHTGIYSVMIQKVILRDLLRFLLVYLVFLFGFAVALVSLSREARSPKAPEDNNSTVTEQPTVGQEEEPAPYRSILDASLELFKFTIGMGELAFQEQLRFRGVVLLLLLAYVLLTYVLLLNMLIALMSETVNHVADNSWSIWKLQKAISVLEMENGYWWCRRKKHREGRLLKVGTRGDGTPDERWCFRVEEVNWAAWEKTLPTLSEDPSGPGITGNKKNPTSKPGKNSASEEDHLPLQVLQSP
Assay: cryo-EM structure; single particle cryo-EM of purified rat TRPV2 without ligand, 2.5 mg/ml, in decyl MNG, 150 mM NaCl, 20 mM HEPES pH 8.0, 1.0 mM DTT; no added lipids
Conditions: remark: other sources report otherwise

- stoichiometry N: 4
B1: full-length rat TRPV2, Q9WUD2 1-761 (natural protein)
chain: MTSASSPPAFRLETSDGDEEGNAEVNKGKQEPPPMESPFQREDRNSSPQIKVNLNFIKRPPKNTSAPSQQEPDRFDRDRLFSVVSRGVPEELTGLLEYLRWNSKYLTDSAYTEGSTGKTCLMKAVLNLQDGVNACIMPLLQIDKDSGNPKLLVNAQCTDEFYQGHSALHIAIEKRSLQCVKLLVENGADVHLRACGRFFQKHQGTCFYFGELPLSLAACTKQWDVVTYLLENPHQPASLEATDSLGNTVLHALVMIADNSPENSALVIHMYDGLLQMGARLCPTVQLEEISNHQGLTPLKLAAKEGKIEIFRHILQREFSGPYQPLSRKFTEWCYGPVRVSLYDLSSVDSWEKNSVLEIIAFHCKSPNRHRMVVLEPLNKLLQEKWDRLVSRFFFNFACYLVYMFIFTVVAYHQPSLDQPAIPSSKATFGESMLLLGHILILLGGIYLLLGQLWYFWRRRLFIWISFMDSYFEILFLLQALLTVLSQVLRFMETEWYLPLLVLSLVLGWLNLLYYTRGFQHTGIYSVMIQKVILRDLLRFLLVYLVFLFGFAVALVSLSREARSPKAPEDNNSTVTEQPTVGQEEEPAPYRSILDASLELFKFTIGMGELAFQEQLRFRGVVLLLLLAYVLLTYVLLLNMLIALMSETVNHVADNSWSIWKLQKAISVLEMENGYWWCRRKKHREGRLLKVGTRGDGTPDERWCFRVEEVNWAAWEKTLPTLSEDPSGPGITGNKKNPTSKPGKNSASEEDHLPLQVLQSP
